Laboratory results from patent US20200270325A1 (Merck Sharp & Dohme, published 2020).
Numbered stars: 1 amine (or outer) side, 2 acyl side, 3 side chain; on linkers, the order of the positions; unused ones are H or OH. Square brackets hold non-standard residues; d marks the D form. Side chains are listed from the residue outwards. Ends that are not written are not given here. * marks the point of attachment. C16 diacid = O=C(O)CCCCCCCCCCCCCCC(=O)*; γGlu = O=C(O)[C@H](CCC(=O)[*:2])N[*:1]; Met(O2) = CS(=O)(=O)CC[C@H](N)C(=O)O; AEEA = NCCOCCOCC(=O)O; Aib = CC(C)(N)C(=O)O

What was measured:
[1] = target: human Glucagon receptor (GCGR) (human, UniProt P47871 26-477); assay: cell-based or functional assay
[2] = target: human GLP-1 receptor (GLP1R) (human, UniProt P43220 24-463); assay: cell-based or functional assay

Chain of human Glucagon receptor (GCGR) (P47871 26-477): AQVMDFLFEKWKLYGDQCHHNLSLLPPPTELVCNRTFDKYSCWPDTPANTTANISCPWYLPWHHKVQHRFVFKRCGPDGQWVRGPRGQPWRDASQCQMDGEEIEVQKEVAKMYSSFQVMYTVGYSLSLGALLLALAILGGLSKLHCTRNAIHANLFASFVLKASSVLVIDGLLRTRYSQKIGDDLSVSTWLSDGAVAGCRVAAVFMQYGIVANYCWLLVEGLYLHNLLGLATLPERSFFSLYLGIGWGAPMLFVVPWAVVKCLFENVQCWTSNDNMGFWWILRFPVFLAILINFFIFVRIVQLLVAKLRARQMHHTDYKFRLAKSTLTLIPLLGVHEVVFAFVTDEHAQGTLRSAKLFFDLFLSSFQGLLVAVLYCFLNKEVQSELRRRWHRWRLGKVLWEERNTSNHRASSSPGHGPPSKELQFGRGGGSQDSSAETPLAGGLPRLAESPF

Binder | GCGR EC50 human [1] [nM] | GLP1R EC50 human [2] [nM]
H[Aib]QGTFTSDYSKYLD[Aib]RAAQDFVK([AEEA-AEEA-γGlu-C16 diacid])WL[Met(O2)]ET-NH2 (N-terminus assumed; SMILES CC(C)C[C@H](NC(=O)[C@H](Cc1c[nH]c2ccccc12)NC(=O)[C@H](CCCCNC(=O)COCCOCCNC(=O)COCCOCCNC(=O)CC[C@H](NC(=O)CCCCCCCCCCCCCCC(=O)O)C(=O)O)NC(=O)[C@@H](NC(=O)[C@H](Cc1ccccc1)NC(=O)[C@H](CC(=O)O)NC(=O)[C@H](CCC(N)=O)NC(=O)[C@H](C)NC(=O)[C@H](C)NC(=O)[C@H](CCCNC(=N)N)NC(=O)C(C)(C)NC(=O)[C@H](CC(=O)O)NC(=O)[C@H](CC(C)C)NC(=O)[C@H](Cc1ccc(O)cc1)NC(=O)[C@H](CCCCN)NC(=O)[C@H](CO)NC(=O)[C@H](Cc1ccc(O)cc1)NC(=O)[C@H](CC(=O)O)NC(=O)[C@H](CO)NC(=O)[C@@H](NC(=O)[C@H](Cc1ccccc1)NC(=O)[C@@H](NC(=O)CNC(=O)[C@H](CCC(N)=O)NC(=O)C(C)(C)NC(=O)[C@@H](N)Cc1c[nH]cn1)[C@@H](C)O)[C@@H](C)O)C(C)C)C(=O)N[C@@H](CCS(C)(=O)=O)C(=O)N[C@@H](CCC(=O)O)C(=O)N[C@H](C(N)=O)[C@@H](C)O) [TP815] | 0.084 | 0.12
H[Aib]QGTFTSDYSKYLDARAAK([AEEA-AEEA-γGlu-C16 diacid])EFVQWL[Met(O2)]DT-NH2 (N-terminus assumed; SMILES CC(C)C[C@H](NC(=O)[C@H](Cc1ccc(O)cc1)NC(=O)[C@H](CCCCN)NC(=O)[C@H](CO)NC(=O)[C@H](Cc1ccc(O)cc1)NC(=O)[C@H](CC(=O)O)NC(=O)[C@H](CO)NC(=O)[C@@H](NC(=O)[C@H](Cc1ccccc1)NC(=O)[C@@H](NC(=O)CNC(=O)[C@H](CCC(N)=O)NC(=O)C(C)(C)NC(=O)[C@@H](N)Cc1c[nH]cn1)[C@@H](C)O)[C@@H](C)O)C(=O)N[C@@H](CC(=O)O)C(=O)N[C@@H](C)C(=O)N[C@@H](CCCNC(=N)N)C(=O)N[C@@H](C)C(=O)N[C@@H](C)C(=O)N[C@@H](CCCCNC(=O)COCCOCCNC(=O)COCCOCCNC(=O)CC[C@H](NC(=O)CCCCCCCCCCCCCCC(=O)O)C(=O)O)C(=O)N[C@@H](CCC(=O)O)C(=O)N[C@@H](Cc1ccccc1)C(=O)N[C@H](C(=O)N[C@@H](CCC(N)=O)C(=O)N[C@@H](Cc1c[nH]c2ccccc12)C(=O)N[C@@H](CC(C)C)C(=O)N[C@@H](CCS(C)(=O)=O)C(=O)N[C@@H](CC(=O)O)C(=O)N[C@H](C(N)=O)[C@@H](C)O)C(C)C) [TP812] | 0.2 | 0.088
H[Aib]QGTFTSDYSKYLDARAAK([AEEA-AEEA-γGlu-C16 diacid])DFVQWL[Met(O2)]ET-NH2 (N-terminus assumed; SMILES CC(C)C[C@H](NC(=O)[C@H](Cc1ccc(O)cc1)NC(=O)[C@H](CCCCN)NC(=O)[C@H](CO)NC(=O)[C@H](Cc1ccc(O)cc1)NC(=O)[C@H](CC(=O)O)NC(=O)[C@H](CO)NC(=O)[C@@H](NC(=O)[C@H](Cc1ccccc1)NC(=O)[C@@H](NC(=O)CNC(=O)[C@H](CCC(N)=O)NC(=O)C(C)(C)NC(=O)[C@@H](N)Cc1c[nH]cn1)[C@@H](C)O)[C@@H](C)O)C(=O)N[C@@H](CC(=O)O)C(=O)N[C@@H](C)C(=O)N[C@@H](CCCNC(=N)N)C(=O)N[C@@H](C)C(=O)N[C@@H](C)C(=O)N[C@@H](CCCCNC(=O)COCCOCCNC(=O)COCCOCCNC(=O)CC[C@H](NC(=O)CCCCCCCCCCCCCCC(=O)O)C(=O)O)C(=O)N[C@@H](CC(=O)O)C(=O)N[C@@H](Cc1ccccc1)C(=O)N[C@H](C(=O)N[C@@H](CCC(N)=O)C(=O)N[C@@H](Cc1c[nH]c2ccccc12)C(=O)N[C@@H](CC(C)C)C(=O)N[C@@H](CCS(C)(=O)=O)C(=O)N[C@@H](CCC(=O)O)C(=O)N[C@H](C(N)=O)[C@@H](C)O)C(C)C) [TP814] | 0.156 | 0.078
H[Aib]QGTFTSDYSKYLDARAAQEFVK([AEEA-AEEA-γGlu-C16 diacid])WL[Met(O2)]DT-NH2 (N-terminus assumed; SMILES CC(C)C[C@H](NC(=O)[C@H](Cc1ccc(O)cc1)NC(=O)[C@H](CCCCN)NC(=O)[C@H](CO)NC(=O)[C@H](Cc1ccc(O)cc1)NC(=O)[C@H](CC(=O)O)NC(=O)[C@H](CO)NC(=O)[C@@H](NC(=O)[C@H](Cc1ccccc1)NC(=O)[C@@H](NC(=O)CNC(=O)[C@H](CCC(N)=O)NC(=O)C(C)(C)NC(=O)[C@@H](N)Cc1c[nH]cn1)[C@@H](C)O)[C@@H](C)O)C(=O)N[C@@H](CC(=O)O)C(=O)N[C@@H](C)C(=O)N[C@@H](CCCNC(=N)N)C(=O)N[C@@H](C)C(=O)N[C@@H](C)C(=O)N[C@@H](CCC(N)=O)C(=O)N[C@@H](CCC(=O)O)C(=O)N[C@@H](Cc1ccccc1)C(=O)N[C@H](C(=O)N[C@@H](CCCCNC(=O)COCCOCCNC(=O)COCCOCCNC(=O)CC[C@H](NC(=O)CCCCCCCCCCCCCCC(=O)O)C(=O)O)C(=O)N[C@@H](Cc1c[nH]c2ccccc12)C(=O)N[C@@H](CC(C)C)C(=O)N[C@@H](CCS(C)(=O)=O)C(=O)N[C@@H](CC(=O)O)C(=O)N[C@H](C(N)=O)[C@@H](C)O)C(C)C) [TP813] | 0.21 | 0.14
H[Aib]QGTFTSDYSKYLD[Aib]RAAQDFVK([AEEA-AEEA-γGlu-C16 diacid])WL[Met(O2)]DT-NH2 (N-terminus assumed; SMILES CC(C)C[C@H](NC(=O)[C@H](Cc1c[nH]c2ccccc12)NC(=O)[C@H](CCCCNC(=O)COCCOCCNC(=O)COCCOCCNC(=O)CC[C@H](NC(=O)CCCCCCCCCCCCCCC(=O)O)C(=O)O)NC(=O)[C@@H](NC(=O)[C@H](Cc1ccccc1)NC(=O)[C@H](CC(=O)O)NC(=O)[C@H](CCC(N)=O)NC(=O)[C@H](C)NC(=O)[C@H](C)NC(=O)[C@H](CCCNC(=N)N)NC(=O)C(C)(C)NC(=O)[C@H](CC(=O)O)NC(=O)[C@H](CC(C)C)NC(=O)[C@H](Cc1ccc(O)cc1)NC(=O)[C@H](CCCCN)NC(=O)[C@H](CO)NC(=O)[C@H](Cc1ccc(O)cc1)NC(=O)[C@H](CC(=O)O)NC(=O)[C@H](CO)NC(=O)[C@@H](NC(=O)[C@H](Cc1ccccc1)NC(=O)[C@@H](NC(=O)CNC(=O)[C@H](CCC(N)=O)NC(=O)C(C)(C)NC(=O)[C@@H](N)Cc1c[nH]cn1)[C@@H](C)O)[C@@H](C)O)C(C)C)C(=O)N[C@@H](CCS(C)(=O)=O)C(=O)N[C@@H](CC(=O)O)C(=O)N[C@H](C(N)=O)[C@@H](C)O) [TP811] | 0.21 | 0.26
